Experiments:
[1] = biological target: T1, extracellular region of human V158 FcγRIIIa with C-terminal 6x His-tag and GST-tag (human, UniProt P08637 17-208); test: only one value in the row
T1 construct: extracellular domain; on glutathione acceptor beads (AlphaScreen) or immobilized on the SPR chip; also called Val158 FcγRIIIa; V158 FcγRllla; not shown: 6x His-tag; GST-tag

[2] = biological target: T1, extracellular region of human V158 …; test: SPR; fold affinity vs WT
[3] = biological target: T1, extracellular region of human V158 …; test: AlphaScreen competition; fold affinity vs WT
[4] = biological target: T1, extracellular region of human V158 …; test: SPR; receptor immobilized, antibody flowed
[5] = biological target: T1, extracellular region of human V158 …; test: SPR; fold affinity vs WT (read as two values, 1 and 1.86; could be 11.86)
[6] = biological target: T1, extracellular region of human V158 …; test: AlphaScreen competition; fold affinity vs WT (read as two values, 1 and 1.86; could be 11.86)

B1: V284E alemtuzumab (antibody)
chain 1: not shown
chain 2: not shown
For B1, the “Fold WT (AlphaScreen or SPR)” value [1] was 1.51 fold.

B2: E283H alemtuzumab (antibody)
chain 1: not shown
chain 2: not shown
With B2 the “Fold WT (AlphaScreen or SPR)” value [1] was 2.31 fold.

B3: E272R alemtuzumab (antibody)
chain 1: not shown
chain 2: not shown
With B3 the “Fold WT (AlphaScreen or SPR)” value [1] was 1.38 fold.

B4: S304T alemtuzumab (antibody)
chain 1: not shown
chain 2: not shown
With B4 the “Fold WT (AlphaScreen or SPR)” value [1] was 12.8 fold.

B5: E258Y alemtuzumab (antibody)
chain 1: not shown
chain 2: not shown
B5 was tested, and the “Fold WT (SPR)” value [2] was 1.77 fold and the “Fold WT (AlphaScreen)” value [3] was 0.64 fold.

B6: WT alemtuzumab (antibody)
chain 1: not shown
chain 2: not shown
Work on B6 yielded a Kd [4] of 68 nM.

B7: T260H alemtuzumab (antibody)
chain 1: not shown
chain 2: not shown
For B7, the “Fold WT (SPR)” value [5] was 1.86 fold and the “Fold WT (AlphaScreen)” value [6] was 1 fold.
